Results reported in the DeepSol protein solubility set.

Test: soluble on expression in E. coli; label from the status in PepcDB or PDB records

Row | Sequence | soluble on expression in E. coli
1 | MGHHHHHHSHMGSLPSRRKSLPSPSLSSSVQGQGPVTMEAERSKATAVALGSFPAGGPAELSLRLGEPLTIVSEDGDWWTVLSEVSGREYNIPSVHVAKVSHGWLYEGLSREKAEELLLLPGNPGGAFLIRESQTRRGSYSLSVRLSRPASWDRIRHYRIHCLDNGWLYISPRLTFPSLQALVDHYSELADDICCLLKEPCVLQRAGPLPGKDIPLPVTVQRTPLNWKELDSSLLFSEAATGEESLLSEGLRESLSFYISLNDEAVSLDDA | not soluble
2 | MGHHHHHHSHMHVDREFAVVTDMKNSSSVSNTLTNGCVINGHLDFPSTTPLSGMESRNGQCLTGTNGISSGLAPGQPFPSSQGSLCISGTEEPEKTLRANPELCGSLHLNGSPSSCIASRPSWVEDIGDNLYYGHYHGFGDTAESIPELNSVVEHSKSVKVQERYDSAVLGTMHLHHGS | not soluble
3 | MGHHHHHHSHMIMQEIFLCSISNVRSGDCKEDCAYCTQSSHHQGAIKRYKFKDEKVVLQEARALRQLGALGFCLVTSGRELDDEKCEYIAKLAKAINQEELGLHLIACCGRADLEQLEFLRDAGIHSYNHNLETSQNFFPKICSTHTWEERFITCENALRAGLGLCSGGIFGLNESWEDRIEMLRALASLSPHTTPINFFIKNPVLPIDAETLSADEALECVLLAKEFLPNARLMVAGGREVVFKDNDKKEAKLFEYGINAVVLGDYLTTKGKAPKKDIEKLLSYGLTMATSCH | soluble
4 | MGHHHHHHSHMKAFSPVRSVRKNSLSDHSLGISRSKTPVDDPMSLLYNMNDCYSKLKELVPSIPQNKKVSKMEILQHVIDYILDLQIALDSHPTIVSLHHQRPGQNQASRTPLTTLNTDISILSLQASEFPSELMSNDSKALCG | soluble
5 | MGHHHHHHSHMKNLFLTSSFKDVVPLFTEFESNLQGKTVTFIPTASTVEEVVFYVEAGKKALEKLGLFVVELDVATESLDHIAATLRKNDFIYVTGGNTFFLLQELKRTGADKLILEEIAAGKLYIGESAGAVITSPNIAYIQSMDSPKKAEQLTNYDALNLVDFCTLPHYNNIPFKKITQKIVADYTKSLKMHPISNHEAILVRDEEVITKLANGKTD | soluble
6 | MGHHHHHHSHMKNSEESSSSSEDTNNATDTNTSESQDISVNGPEKVGDVYEIDGGTAKVMAISNKETTVKTGPIQFTVKKVIAAVANEQLPFIDVQIESENTSDEVVRFRPSLAQLATSTGVQIDEPSLLESDRLLDEYVGKVNDSGSIIYVFDNEEDIKDLESIRLRISSPFNEDLKNLGDKLDLKINLEH | soluble
7 | MGHHHHHHSHMLKIIRAGMYTTVQDGGRHGFRQSGISHCGALDMPALRIANLLVGNDANAPALEITLGQLTVEFETDGWFALTGAGCEARLDDNAVWTGWRLPMKAGQRLTLKRPQHGMRSYLAVAGGIDVPPVMGSCSTDLKVGIGGLEGRLLKDGDRLPIGKSKRDSMEAQGVKQLLWGNRIRALPGPEYHEFDRASQDAFWRSPWQLSSQSNRMGYRLQGQILKRTTDRELLSHGLLPGVVQVPHNGQPIVLMNDAQTTGGYPRIACIIEADMYHLAQIPLGQPIHFVQCSLEEALKARQDQQRYFEQLAWRLHNEN | not soluble
8 | MGHHHHHHSHMNNRTRLALIICNTEFDHLPPRNGADFDITGMKELLEGLDYSVDVEENLTARDMESALRAFATRPEHKSSDSTFLVLMSHGILEGICGTVHDEKKPDVLLYDTIFQIFNNRNCLSLKDKPKVIIVQACRGANRGELWVRDSPASLEVASSQSSENLEEDAVYKTHVEKDFIAFCSSTPHNVSWRDSTMGSIFITQLITCFQKYSWCCHLEEVFRKVQQSFETPRAKAQMPTIERLSMTRYFYLFPGN | soluble
9 | MGHHHHHHSHMNSIVNGLYTFMSTTVVPAVTEQAANLVGGASALAEGATQALTQISQTALEWGSGSEDATASSEVFSWEQQGAAAASSDLQEDKKETTEDVHQEAIGASSPNTSIEWEVIHENPDETGPIRHNQFEMVQNNYEWMKNSK | not soluble
10 | MGHHHHHHSHMPFTPPVVKRLLGWKKSAGGSGGAGGGEQNGQEEKWCEKAVKSLVKKLKKTGRLDELEKAITTQNCNTKCVTIPSTCSEIWGLSTPNTIDQWDTTGLYSFSEQTRSLDGRLQVSHRKGLPHVIYCRLWRWPDLHSHHELKAIENCEYAFNLKKDEVCVNPYHYQRVETP | soluble
11 | MGHHHHHHSHMPPHPAIFFYCLLRQGLTMLPRLVLNFWAQAVHLPRPPRVLGLQAGGTAPGQKKLFLTSHFPPASPLPLCFSLQQNFKKHSPRSPPGILGSLYPGFCSPIATSPFAKGTRGLRVVGSSGRLSASS | not soluble
12 | MGHHHHHHSHMPSCVVNPMEHTHAATAALPAAGPVNLPTGISRVPTGYPSDLKPVTWNQHQLAHLQQMCSEASGTPAPGLTGKHAAGRELAGPGFVGKAPAYPQELCLAQSFHLKPPLEKPTPSPPVNGMAAPLAYPNGHYFQPLWNNILPTPNSDSSGSQDLAMPFHGGQPTGAPLDCAAAPGAHYRAGTGGGPVASQNSLMQTVDYLSGDFQQACFREQSLAMLSKAHRAPGNRAPDPTESRSLHIQHPGYR | not soluble
13 | MGHHHHHHSHMPSLSTLRMRRCPSSLWIRFGYDPRKNPDAKIYQVLDFRIRCGMKHGYAPSDLPVKAKRSTYNYSLPITVKKTSSQLVTMHDLKQGLGPSGTSGARKPASSKYKLKVSLQTLRDSVYIFREGALPPYRQMFYQLCDLNVEELQKIIHRNDGAENSCTERDGWCLPKTSDELRDTMSLMIRQTIRSKRPALFSSSAKADGGKEQLTYESGEDEEDEEEEEEEEEDFKPSDGSENEMETEILDYV | not soluble
14 | MGHHHHHHSHMPVTEKDLAEDAPWKKIQQNTFTRWCNEHLKCVNKRIGNLQTDLSDGLRLIALLEVLSQKRMYRKYHQRPTFRQMQLENVSVALEFLDRESIKLVSIDSKAIVDGNLKLILGLVWTLILHYSISMPVWEDEGDDDAKKQTPKQRLLGWIQNKIPYLPITNFNQNWQDGKALGALVDSCAPGLCPDWESWDPQKPVDNAREAMQQADDWLGVPQVITPEEIIHPDVDEHSVMTYLSQFPKAKLKPGAPLKPKL | soluble
15 | MGHHHHHHSHMQHLENSSLFEGSLSKNLSLNSQALKENLYYEAGKMLAISLVHGGPSPGFFSKTLFNCLVYGPENTQPILDDVSDFDVAQIIIRINTATTVADLKSIINECYNYLELIGCLRLITTLSDKYMLVKDILGYHVIQRVHTPFESFKQGLKTLGVLEKIQAYPEAFCSILCHKPESLSAKILSELFTVHTLPDVKALGFWNSYLQAVEDGKSTATMEDILIFATGCSSIPPAGFKPTPSIECLHVDFPVGNKCNNCLAIPITNTYKEFQENMDFTIRNTLRLEKEESSHYIGH | not soluble
16 | MGHHHHHHSHMQNEKETMQSLNDRLASYLDRVRSLETENRRLESKIREHLEKKGPQVRDWSHYFKIIEDLRAQIFANTVDNARIVLQIDNARLAADDFRVKYETELAMRQSVENDIHGLRKVIDDTNITRLQLETEIEALKEELLFMKKNHEEEVKGLQAQIASSGLTVEVDAPKSQDLAKIMADIRAQYDELARKNREELDKYWSQQIEESTTVVTTQSAEVGAAETTLTELRRTVQSLEIDLDSMRNLKASLENSLREVEARYALQMEQLNGILLHLESELAQTRAEGQRQAQEYEALLNIKVKLEAEIATYRRLLEDGEDFNLGDALDSSNSMQTIQKTTTRRIVDGKVVSETNDTKVLRH | soluble
17 | MGHHHHHHSHMRTISFFNNKGGVGKTTLSTNVAHYFALQGKRVLYVDCDPQCNATQLMLTEEQTESIYLDGLNDEVAERNSLAKTVYAIFVPLREGESQIAAEITPMRSERFGVDVLPGHPALSQIEDLMSDSWQSALGRQTGPFRRIHWAGQLAHAMERDDRYDVIFFDVGPSLGPFNRTVLLGCDAFVTPTATDLFSFHAFGNLARWFDAWVTQYAEIHEGNMAEWKKYS | not soluble
18 | MGHHHHHHSHMSASYISDPVIAGTNMTWSQEKQSLLMQGEILVETRSHTAWGGAVSACMYLPLRRSQVWQQITDYPRWVQYFPDITKSEVLQRGEVKRLYQAAQKAFFFFTAQVEIYLNVVEVIGHKIQFRMEKGTFVDFTANLELKDCGDGTLLIYGVQATPNIPVPSIFIQQAMNFELPTNMRKMRQVISNSVNS | not soluble
19 | MGHHHHHHSHMSFVECPYHSPAERLVAEADEGGPSAITGMGLCFRCLLFSFSGRSGVEGGRVDLNVFGSLGLQPWIGSSRCWGGPCSSALRCGWFSSWPPPSKSAIPIGGGSRGAGRVSRWPPPHWLEAWRVSPRPL | not soluble
